Measured values from US20250011738A1, “HEAT TOLERANT ALKALINE PHOSPHATASE” (BiomEdit, LLC, priority 2021, published 2025).

Tests used:
Format in all cases: biochemical, Paenibacillus lentus
[1] = substrate: Nc1ncnc2c1ncn2[C@@H]1O[C@H](COP(=O)(O)OP(=O)(O)OP(=O)(O)O)[C@@H](O)[C@H]1O; assay: Phosphate assay (Malachite green) with UDP, ATP and dAMP, AP1 ("Native")
Protocol: (§1) FIG. 9 depicts (A)Vmax (IU/mg) and (B) KM (μM) activity of AP1 (designated “Native”) and APHT (designated “HT”) on UDP, ATP and dAMP. Assays were performed at 40° C. with p substrate concentration 0-5 mM in Tris buffer pH 8. The enzyme concentration was 2 μg/mL.
(§2) FIG. 10 depicts (A)Vmax (IU/mg) and (B) KM (μM) activity of AP1 (designated “Native”) and APHT (designated “HT”) with UDP, ATP and dAMP. Assays were performed at 50° C. with p substrate concentration 0-5 mM in DEA buffer pH 10. The enzyme concentration was 2 μg/mL.
(§3) Enzymes, including lysozyme and alkaline phosphatase, are recognized as disruptors of bacterial debris and inflammation. These enzymes reduce inflammation, including by lysing the peptidoglycans and LPS of bacteria, thus deactivating them and thereby bypassing the inflammatory response. An alkaline phosphatase was initially identified and modified from Paenibacillus lentus bacteria and expressed for application and use as a farm animal feed additive. This modified alkaline phosphatase is characterized by having a serine (S) replacement for an aspartic acid (D) in the native bacterial alkaline phosphatase protein sequence and is designated herein as AP1. […] The AP1 alkaline phosphate is described including in U.S. Pat. No. 9,326,535 issued May 3, 2016. The sequence of AP1 is as follows (the serine is in bold and underlined) (SEQ ID NO:4):
(§4) 5. Phosphate Assay with Biological Substrates UDP, ATP, and dAMP (Native and HT)
(§5) Phosphatase activity with UDP, ATP and dAMP was assessed by measuring the release of […] with the Malachite green reagent (Sigma) at 40° C. and 50° C. Assay consisted of nucleotide phosphate in the concentration range 0-5 mM, 2 μg/mL AP in a final volume of 100 μL. The reaction was initiated in a 96-well microplate with the addition of enzyme and incubated for 5 min. After this time, 10 μL of reaction were mixed with 90 μL of water 25 μL of Malachite green solution. The microplate was shaken for 20 min at 25° C. and absorption was recorded at 620 nm. As standard pyrophosphate solution in water was used in the concentration range of 0-40 μM. Each experiment was done by triplicated at least.

[2] = substrate: Nc1ncnc2c1ncn2[C@H]1C[C@H](O)[C@@H](COP(=O)(O)O)O1; assay: as above
Protocol: as §1, §2, §3, §4, §5

[3] = substrate: O=c1ccn([C@@H]2O[C@H](COP(=O)(O)OP(=O)(O)O)[C@@H](O)[C@H]2O)c(=O)[nH]1; assay: as above
Protocol: as §1, §2, §3, §4, §5

[4] = substrate: Nc1ncnc2c1ncn2[C@@H]1O[C@H](COP(=O)(O)OP(=O)(O)OP(=O)(O)O)[C@@H](O)[C@H]1O; assay: Phosphate assay (Malachite green) with UDP, ATP and dAMP, APHT ("HT")
Protocol: as §1, §2
(§6) To further improve the thermal stability, a set of synthetic alkaline phosphatase genes where each amino acid was mutated to other possibilities one at a time was constructed and evaluated. Numerous single amino acids changes improving heat tolerance were combined and incorporated into a mutated alkaline phosphatase version yielding the alkaline phosphatase heat tolerant molecule designated APHT. […] (FIG. 4), and has a total of 16 amino acid changes from the original AP1 sequence (see FIG. 5A and B). In FIG. 5A, the AP1 with a serine mutation is designated as “AP Native” and is depicted in sequence with a leader sequence ASGFYVSGT (SEQ ID NO:13). The AP1 with leader sequence ASGFYVSGT is provided in SEQ ID NO:14). The APHT polypeptide with leader sequence ASGFYVSGT is provided in SEQ ID NO:15). In FIG. 5B, the AP1 with a serine mutation and without any leader sequence or leader peptide amino acids (SEQ ID NO:4) is aligned and compared with the APHT without any leader sequence or leader peptide amino acids (SEQ ID NO:1). The 16 amino acid changes in APHT are evident. The APHT amino acid sequence (excluding and without any leader sequence and starting with amino acids ESSN) is 97% identical to the sequence of AP1 (excluding and without any leader sequence and starting with amino acids ESSN).
(§7) The APHT sequence (SEQ ID NO: 1) is provided below with the amino acid mutations versus the AP1 sequence underlined and in bold.
as §4, §5

[5] = substrate: Nc1ncnc2c1ncn2[C@H]1C[C@H](O)[C@@H](COP(=O)(O)O)O1; assay: as above
Protocol: as §1, §2, §6, §7, §4, §5

[6] = substrate: O=c1ccn([C@@H]2O[C@H](COP(=O)(O)OP(=O)(O)O)[C@@H](O)[C@H]2O)c(=O)[nH]1; assay: as above
Protocol: as §1, §2, §6, §7, §4, §5

[7] = substrate: Nc1ncnc2c1ncn2[C@@H]1O[C@H](COP(=O)(O)OP(=O)(O)OP(=O)(O)O)[C@@H](O)[C@H]1O; assay: Dephosphorylation of substrates UDP, ATP and dAMP (Example 4, Table 11); settings: other: Table 11; conditions not given
Protocol: (§8) The inorganic phosphorous release (μM) from each of these sources by the heat tolerant HTAP was determined and is shown in FIG. 12. […] The inorganic phosphorous release (μM) was also assessed from the metabolically relevant compounds phosphocholine, phosphocreatine and phytic acid and compared with native AP. The heat tolerant HTAP was comparably active vs native AP in Pi release from each of compounds phosphocholine, phosphocreatine and phytic acid (data not shown).
(§9) Dephosphorylation of substrates UDP, ATP and dAMP was also assessed and determined.

[8] = substrate: Nc1ncnc2c1ncn2[C@H]1C[C@H](O)[C@@H](COP(=O)(O)O)O1; assay: as above; settings: other: Table 11; conditions not given
Protocol: as §8, §9

[9] = substrate: O=c1ccn([C@@H]2O[C@H](COP(=O)(O)OP(=O)(O)O)[C@@H](O)[C@H]2O)c(=O)[nH]1; assay: as above; settings: other: Table 11; conditions not given
Protocol: as §8, §9

[10] = other: 40° C., Tris buffer pH 8, enzyme 2 μg/mL, pH 8.0, 40.0 °C
[11] = other: 50° C., DEA buffer pH 10, enzyme 2 μg/mL, pH 10.0, 50.0 °C

B1: Paenibacillus lentus alkaline phosphatase AP1 (designated "Native"), serine (S) replacement for an aspartic acid (D), SEQ ID NO: 4 (Paenibacillus lentus; D102S) (protein)
chain: ESSNGQSKNLIVLIGDGMGPAQVSAARYFQQHKNNINSLNLDPYYVGQATTYADRGEDGGHIVSGIVTSSASAGTAFATGNKTYNAAISVSNEDVSRPFASVLEAAELSGKSTGLVTTARITHATPAVYASHVRSRDNENAIAFQYLDSGIDVLLGGGESFFVTKEEKGKRNDKNLLPEFEAKGYKVVKTGQSLKSLSAKDAKVLGLFGGSHIAYVPDRSDETPSLAEMTSKALEILSTNENGFAIMIEGGRIDHAGHANDFPTMVQEALDFDEAFKVAIDFAKKDGNTSVVVTADHETGGLSLSRDNIYELNVDLWNKQKNSSESLVSALNEAKTIADVKKIVSDNTWITDLTNEEAQYILDGDGSSYKREGGYNAVISKRLLVGWSGHGHSAVDVGVWAYGPIADKVKGQIDNTRIATASAEVLGVDLKKATADLQSKYLYPKFKINRNKEVLFPAKPLAEALGGKYQAANGTATISGMSGTITVDLNAKKAKLSGNSSSITIDVDNDVLYLPLTAFSQITGQTLKWDALSERIMLK
- Km [1, 10]: 110 µM
- Vmax [1, 10]: 336 IU/mg
- Km [1, 11]: 210 µM
- Vmax [1, 11]: 578 IU/mg
- Km [2, 10]: 113 µM
- Vmax [2, 10]: 356 IU/mg
- Km [2, 11]: 199 µM
- Vmax [2, 11]: 730 IU/mg
- Km [3, 10]: 74 µM
- Vmax [3, 10]: 447 IU/mg
- Km [3, 11]: 83 µM
- Vmax [3, 11]: 608 IU/mg

B2: Paenibacillus lentus alkaline phosphatase AP1 heat tolerant mutant APHT (designated "HT"), 16 amino acid changes from AP1, SEQ ID NO: 1 (Paenibacillus lentus; … (protein)
chain: ESSNGQSKNLIVLIGDGMGPAQVSAARYFQQHINNINSLNLDPYYVGQATTYADRGEDGGHIVSGIITSSAAAGTAIATGNKTNNAAISVSNEDVSRPFASVHEAAELSGKSTGLVTTARITHATPAVYGSHVRNRDNENAIAFQYLDSGIDVLLGGGESFFVTNEEKGKRNDKNLLPEFEAKGYKVVKNGQSLKSLSAKDAKVLGLFGGSHIPYVPDRSDETPSLAEMTSKALEILSTNENGFAIMIEGGRIDHAAHANDFPTMVQEMLAFDEAFKVAIDFAKKDGNTSVVVTADHETGGLSLGRDNIYELNVDLWNKQKNSSESLVSALNEAKTIADVKKIVSDNTWITDLTNEEAQYILDGDGSSYKREGGYNAVISKRLLVGWSGHGHSAVDVGVWAYGPIADKVKGQIDNTRIATASAEVLGVDLKKATADLQSKYLYPKFKINRNKEVLFPAKPLAEALGGKYQAANGTATISGMSGTITVDLNAKKAKLSGNSSEITIDVDNDVLYLPLTAFSQITGQTLKWDALSERIMLK
- Km [4, 10]: 97 µM
- Vmax [4, 10]: 358 IU/mg
- Km [4, 11]: 283 µM
- Vmax [4, 11]: 380 IU/mg
- Km [5, 10]: 165 µM
- Vmax [5, 10]: 262 IU/mg
- Km [5, 11]: 623 µM
- Vmax [5, 11]: 472 IU/mg
- Km [6, 10]: 93 µM
- Vmax [6, 10]: 631 IU/mg
- Km [6, 11]: 121 µM
- Vmax [6, 11]: 521 IU/mg

B3: Paenibacillus lentus alkaline phosphatase AP1 heat tolerant mutant APHT (HTAP), SEQ ID NO: 1 (Paenibacillus lentus; … (protein)
chain: B2 chain
- Km [7]: 399 ± 68 µM
- kcat [7]: 0.1 ± 0.00333 s⁻¹
- Km [8]: 242 ± 27 µM
- kcat [8]: 0.132 s⁻¹
- Km [9]: 166 ± 14 µM
- kcat [9]: 0.125 ± 0.00167 s⁻¹
